The text below walks through data of patent EP4725969A1 (Latticon (Suzhou) Biopharmaceuticals Co., Ltd., dated 2024).

Read-outs that look alike come from different tables or passages of the source.

For test [1], the target named is T1, recombinant human HER3 extracellular domain (human, UniProt P21860 20-643).
T1 construct: extracellular domain
The experiment in a line: ELISA, coated HER3 ECD.

In test [2] the target is T2, recombinant human EGFR extracellular domain (human, UniProt P00533 25-645).
T2 construct: extracellular domain
The experiment in a line: ELISA, coated EGFR ECD. On the technique in general: An ELISA detects its analyte on a solid surface through an enzyme-linked reagent.

The next test concerns the target FcγRIIIa (176F) (UniProt P08637 17-208). Briefly: BLI (ForteBio). For orientation: BLI is a label-free optical method that tracks binding on a fibre tip over time.
Another test addresses FcγRIIIa (176V) (UniProt P08637 17-208, limits assumed). The experiment in a line: BLI (ForteBio).
The next test has as its target T3, FcγRIIa (167H) (UniProt P12318 36-218, limits assumed).
T3 sequence (looked up): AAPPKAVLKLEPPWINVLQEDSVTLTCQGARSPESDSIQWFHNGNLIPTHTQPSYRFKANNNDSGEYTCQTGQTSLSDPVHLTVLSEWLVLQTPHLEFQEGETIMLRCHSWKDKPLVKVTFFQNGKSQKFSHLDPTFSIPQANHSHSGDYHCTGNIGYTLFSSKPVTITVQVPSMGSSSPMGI
Briefly: BLI (ForteBio).

The target of another test is T4, FcγRI (UniProt P12314 16-288, limits assumed).
T4 construct: also called CD64
The experiment in a line: BLI (ForteBio).

Test [3] has as its target T5, recombinant human HER4 extracellular domain (human, UniProt Q15303 26-651).
T5 construct: extracellular domain
T5 sequence (looked up): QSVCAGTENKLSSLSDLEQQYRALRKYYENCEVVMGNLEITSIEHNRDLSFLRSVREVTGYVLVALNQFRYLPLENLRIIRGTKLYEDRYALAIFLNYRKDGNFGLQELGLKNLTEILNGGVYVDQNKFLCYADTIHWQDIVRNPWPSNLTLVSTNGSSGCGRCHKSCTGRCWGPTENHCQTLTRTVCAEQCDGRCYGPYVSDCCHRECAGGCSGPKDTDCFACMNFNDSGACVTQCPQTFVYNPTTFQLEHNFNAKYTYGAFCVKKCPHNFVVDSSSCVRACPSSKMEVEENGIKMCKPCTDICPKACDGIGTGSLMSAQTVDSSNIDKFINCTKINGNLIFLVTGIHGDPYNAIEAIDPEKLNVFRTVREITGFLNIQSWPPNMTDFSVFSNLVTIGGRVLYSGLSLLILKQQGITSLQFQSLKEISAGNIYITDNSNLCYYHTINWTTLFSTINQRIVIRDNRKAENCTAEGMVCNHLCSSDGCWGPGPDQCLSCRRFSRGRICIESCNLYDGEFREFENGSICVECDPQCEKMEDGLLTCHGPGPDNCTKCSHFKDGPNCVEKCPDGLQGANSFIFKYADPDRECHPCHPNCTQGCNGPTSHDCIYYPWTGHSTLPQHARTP
Briefly: ELISA, coated HER4 ECD.

Test [4] concerns the target T6, recombinant human HER2 extracellular domain protein (human, UniProt P04626 23-652).
T6 construct: range 23-652; Range is printed for the immunogen/panning protein; also called ErbB2; recombinant HER2 protein
Briefly: BLI, Protein A capture.

The target in test [5] is T6, recombinant human HER2 extracellular …. The experiment in a line: BLI, Protein A capture. The source holds these as a separate data set.
In test [6] the target is T7, human HER2 expressed on tumor cells (human, UniProt P04626 23-1255).
T7 construct: whole, on cells; Cell line is named in each row's assay
The experiment in a line: flow cytometry, BT474 cells, 10 µg/mL. Background: Flow cytometry measures light scatter and fluorescence of single cells or particles in a stream.

T4 sequence (P12314 16-288 limits assumed): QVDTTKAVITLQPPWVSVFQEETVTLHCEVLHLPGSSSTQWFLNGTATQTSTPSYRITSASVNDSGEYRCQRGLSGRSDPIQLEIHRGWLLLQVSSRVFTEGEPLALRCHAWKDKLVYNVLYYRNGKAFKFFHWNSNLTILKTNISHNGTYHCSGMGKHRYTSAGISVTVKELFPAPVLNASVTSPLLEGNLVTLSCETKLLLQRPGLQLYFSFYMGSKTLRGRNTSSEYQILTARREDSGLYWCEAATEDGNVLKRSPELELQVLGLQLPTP
FcγRIIIa (176V), sequence (P08637 17-208 F176V limits assumed): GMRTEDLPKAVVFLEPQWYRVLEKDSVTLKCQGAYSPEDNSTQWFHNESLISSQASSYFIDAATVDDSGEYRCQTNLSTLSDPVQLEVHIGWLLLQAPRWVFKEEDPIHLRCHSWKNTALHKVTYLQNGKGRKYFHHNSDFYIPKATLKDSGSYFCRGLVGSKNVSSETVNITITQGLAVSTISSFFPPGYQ
FcγRIIIa (176F), sequence (P08637 17-208 limits assumed): as the sequence (P08637 17-208 F176V limits assumed) above, with V160F counted along it

B1: 04BS-1123-ST06 (bispecific antibody)
heavy: QVQLVESGGGLVQPGGSLRLSCAASGFTYSSYGMSWVRQAPGKGLEWVASISGGGSYTKYVDKVKGRFTISRDNSKNTLYLQMNSLRAEDTAVYYCARDYVGFFDVWGQGTLVTVSSGGGGSQVQLVQSGSELKKPGASVKVSCKASGYTFTDYSMHWVRQAPGQGLEWMGWINTGTGEPTYADDFKGRFTISRDTSKSTAYLQISSLKAEDTAVYYCVRVGRYDYAMDYWGQGTTVTVSSASTKGPSVFPLAPSSKSTSGGTAALGCLVKDYFPEPVTVSWNSGALTSGVHTFPAVLQSSGLYSLSSVVTVPSSSLGTQTYICNVNHKPSNTKVDKRVEPKSCDKTHTCPPCPAPEFEGGPSVFLFPPKPKDTLMISRTPEVTCVVVDVSHEDPEVKFNWYVDGVEVHNAKTKPREEQYNSTYRVVSVLTVLHQDWLNGKEYKCKVSNKALPASIEKTISKAKGQPREPQVYTLPPSRDELTKNQVSLTCLVKGFYPSDIAVEWESNGQPENNYKTTPPVLDSDGSFFLYSKLTVDKSRWQQGNVFSCSVMHEALHNHYTQKSLSLSPGK
light: DIQMTQSPSSLSASVGDRVTITCRSSQSLVHSNRNTYLHWYQQKPGKAPKLLIYKVSNRFSGVPSRFSGSGSGTDFTLTISSLQPEDFATYFCSQSTHVPYTFGQGTKVEIKGGGGSGGGGSGGGGSDIQMTQSPSSLSASVGDRVTITCRASQDVYTAVAWYQQKPGKAPKLLINLASSRPTGVPSRFSGSGSGTDFTLTISSLQPEDFATYYCQQYYSTPPTFGGGTKVEIKRTVAAPSVFIFPPSDEQLKSGTASVVCLLNNFYPREAKVQWKVDNALQSGNSQESVTEQDSKDSTYSLSSTLTLSKADYEKHKVYACEVTHQGLSSPVTKSFNRGEC
notes: also called anti-HER2 biparatopic antibody 04BS-1123-ST06
In the case of B1, the binding result (in test [1]; in test [2]; in the test with FcγRIIIa (176F); with FcγRIIIa (176V); with FcγRIIa (167H); in the test with FcγRI) was “no binding” each time. For the same molecule, the binding result in test [3] is given as “no binding”.

B2: mAb2126 (antibody, human IgG1, V domains shown)
VH: QIQLAQSGPELKKPGETVKISCKASGYTFTDYSMHWVKQAPGKYLKWMGWINTETGEPTYADDFKGRFAFSLETSANTAYLQINNLKNEDTATYFCVRVGRYDYAMDYWGQGTSVTVSS
VL: DIVMTQSHKFMSTSVGDRVSITCKASQDVYTAVAWYQQKPGQSPKLLINSASYRYTGVPDRFTGSGSGTDFTFTISSVQAEDLAVYYCQQHYSTPPTFGGGTKLEIK
notes: also called anti-HER2 chimeric antibody mAb2126
In general, Kd refers to the free concentration of one partner at which half of the binding sites on the other are occupied at equilibrium, for simple one-to-one binding. One may read the koff as the rate constant with which the complex falls apart. By kon is commonly meant a measure of how fast the partners come together. As to B2, the binding result in [1], in [2] and in test [3] was “no binding” in each case. The Kd in test [4] came to 1.44 nM; in test [5], 5.2 nM. In addition, the koff in test [4] is 9.67e-05 s⁻¹; in [5] it was 0.000502 s⁻¹. Further, the kon in test [4] came to 67300 M⁻¹ s⁻¹; in test [5], 96600 M⁻¹ s⁻¹.

B3: Hu2117-HK201 (Fc fusion)
scFv: EVQLVESGGGLVQPGGSLRLSCAASGFTYSSYGMSWVRQAPGKGLEWVASISGGGNYAKYVDSVKGRFTISRDNSKNTLYLQMNSLRAEDTAVYYCARDYAGFFDVWGQGTLVTVSSGGGGSGGGGSGGGGSDIQMTQSPSSLSASVGDRVTITCRSSQSLVHSNRNTYLHWYQQKPGKAPKLLIYKVSNRFSGVPSRFSGSGSGTDFTLTISSLQPEDFATYFCSQSTHVPYTFGQGTKVEIK
notes: scFv-hIgG1 Fc; not shown: human IgG1 Fc
As to B3, the binding result in test [6] is “binds”.

B4: mAb2117 (antibody, V domains shown)
VH: EVKIEESGGGLVKPGGSLKLSCAASGFTYSSYGMSWVRQTPEKRLEWVASISGGGSYTKYPDSVKGRFTISRDNAKNHLYLQMSSLRSEDTALYYCARDYAGFFDVWGAGTTVTVSS
VL: DVVLTQTPLSLPVSLGDQASISCRSSQSLVHSNGNTYLHWYLQKPGQSPKLLIYKVSNRFSGVPDRFSGSGSGTDFTLKISRVEAEDLGVYFCSQSTHVPYTFGGGTKLEIK
notes: also called anti-HER2 chimeric antibody mAb2117
Regarding B4, the binding result in test [1], in [2] and in [3] was “no binding” in each case. In addition, the Kd in test [4] turned out to be 4.28 nM. In addition, the koff in test [4] stood at 0.00166 s⁻¹. Also, the kon in test [4] was found to be 388000 M⁻¹ s⁻¹.

B5: mAb2128 (antibody, V domains shown)
VH: EVQLQQSGPELVKPGASVKIPCKASGYTFTDYNMDWVKQSHGKSLEWIGDINPNNGGTIYNQKFKGKATLTVDKSSSTAYMELRSLTSEDTAVYYCARYGSGYGGFAYWGQGTLVTVSS
VL: DIVLTQSPTTMAASPGEKITITCSASSSISSNYLHWYQQKPGFSPKLLIYRTSNLASGVPARFSGSGSGTSYSLTIGTMEAEDVATYYCQQGSSIPRTFGGGTKLEIK
notes: Chimeric human IgG1/Cκ
As to B5, the binding result in [1] is given as “no binding”. In addition, in [4], the Kd was determined as 3.44 nM, the koff was 0.000949 s⁻¹ and the kon was 276000 M⁻¹ s⁻¹. Also, in [2], the binding result is “no binding”. For the same molecule, the binding result in [3] is listed as “no binding”.
